Data as given in patent publication US20100120171A1.

Tests used:
[1] = target: recombinant fragment of human VE-cadherin extracellular region, CAD 1-4 fragment (Asp48-Glu478, preceded by Met), SEQ ID NO: 4 (human) (UniProt P33151); experiment: sandwich ELISA, BV9 capture, rabbit polyclonal detection; CAD1-4 at 5 ng/mL; mean OD minus OD at 0 ng/mL
[2] = target: recombinant fragment of human VE-cadherin extracellular region, CAD 1-4 fragment (Asp48-Glu478, preceded by Met), SEQ ID NO: 4 (human) (UniProt P33151); experiment: sandwich ELISA, BV9 capture, rabbit polyclonal detection; CAD1-4 at 1.25 ng/mL; second replicate
[3] = target: recombinant fragment of human VE-cadherin extracellular region, CAD 1-4 fragment (Asp48-Glu478, preceded by Met), SEQ ID NO: 4 (human) (UniProt P33151); experiment: sandwich ELISA, BV9 capture, rabbit polyclonal detection; CAD1-4 at 2.5 ng/mL; first replicate
[4] = target: recombinant fragment of human VE-cadherin extracellular region, CAD 1-4 fragment (Asp48-Glu478, preceded by Met), SEQ ID NO: 4 (human) (UniProt P33151); experiment: sandwich ELISA, BV9 capture, rabbit polyclonal detection; CAD1-4 at 10 ng/mL
[5] = target: recombinant fragment of human VE-cadherin extracellular region, CAD 1-4 fragment (Asp48-Glu478, preceded by Met), SEQ ID NO: 4 (human) (UniProt P33151); experiment: sandwich ELISA, BV9 capture, rabbit polyclonal detection; CAD1-4 at 5 ng/mL; first replicate
[6] = target: recombinant fragment of human VE-cadherin extracellular region, CAD 1-4 fragment (Asp48-Glu478, preceded by Met), SEQ ID NO: 4 (human) (UniProt P33151); experiment: sandwich ELISA, BV9 capture, rabbit polyclonal detection; CAD1-4 at 5 ng/mL
[7] = target: recombinant fragment of human VE-cadherin extracellular region, CAD 1-4 fragment (Asp48-Glu478, preceded by Met), SEQ ID NO: 4 (human) (UniProt P33151); experiment: sandwich ELISA, BV9 capture, rabbit polyclonal detection; CAD1-4 at 0.63 ng/mL; first replicate
[8] = target: recombinant fragment of human VE-cadherin extracellular region, CAD 1-4 fragment (Asp48-Glu478, preceded by Met), SEQ ID NO: 4 (human) (UniProt P33151); experiment: sandwich ELISA, BV9 capture, rabbit polyclonal detection; CAD1-4 at 2.5 ng/mL
[9] = target: recombinant fragment of human VE-cadherin extracellular region, CAD 1-4 fragment (Asp48-Glu478, preceded by Met), SEQ ID NO: 4 (human) (UniProt P33151); experiment: sandwich ELISA, BV9 capture, rabbit polyclonal detection; CAD1-4 at 5 ng/mL; remark: listed apart in the source
[10] = target: recombinant fragment of human VE-cadherin extracellular region, CAD 1-4 fragment (Asp48-Glu478, preceded by Met), SEQ ID NO: 4 (human) (UniProt P33151); experiment: sandwich ELISA, BV9 capture, rabbit polyclonal detection; CAD1-4 at 2.5 ng/mL; mean OD minus OD at 0 ng/mL
[11] = target: recombinant fragment of human VE-cadherin extracellular region, CAD 1-4 fragment (Asp48-Glu478, preceded by Met), SEQ ID NO: 4 (human) (UniProt P33151); experiment: sandwich ELISA, BV9 capture, rabbit polyclonal detection; CAD1-4 at 1.25 ng/mL; first replicate
[12] = target: recombinant fragment of human VE-cadherin extracellular region, CAD 1-4 fragment (Asp48-Glu478, preceded by Met), SEQ ID NO: 4 (human) (UniProt P33151); experiment: sandwich ELISA, BV9 capture, rabbit polyclonal detection; CAD1-4 at 1.25 ng/mL
[13] = target: recombinant fragment of human VE-cadherin extracellular region, CAD 1-4 fragment (Asp48-Glu478, preceded by Met), SEQ ID NO: 4 (human) (UniProt P33151); experiment: sandwich ELISA, BV9 capture, rabbit polyclonal detection; CAD1-4 at 1.25 ng/mL; mean OD minus OD at 0 ng/mL
[14] = target: recombinant fragment of human VE-cadherin extracellular region, CAD 1-4 fragment (Asp48-Glu478, preceded by Met), SEQ ID NO: 4 (human) (UniProt P33151); experiment: sandwich ELISA, BV9 capture, rabbit polyclonal detection; CAD1-4 at 10 ng/mL; mean OD minus OD at 0 ng/mL
[15] = target: recombinant fragment of human VE-cadherin extracellular region, CAD 1-4 fragment (Asp48-Glu478, preceded by Met), SEQ ID NO: 4 (human) (UniProt P33151); experiment: sandwich ELISA, BV9 capture, rabbit polyclonal detection; CAD1-4 at 10 ng/mL; second replicate
[16] = target: recombinant fragment of human VE-cadherin extracellular region, CAD 1-4 fragment (Asp48-Glu478, preceded by Met), SEQ ID NO: 4 (human) (UniProt P33151); experiment: sandwich ELISA, BV9 capture, rabbit polyclonal detection; CAD1-4 at 0.63 ng/mL
[17] = target: recombinant fragment of human VE-cadherin extracellular region, CAD 1-4 fragment (Asp48-Glu478, preceded by Met), SEQ ID NO: 4 (human) (UniProt P33151); experiment: sandwich ELISA, BV9 capture, rabbit polyclonal detection; CAD1-4 at 10 ng/mL; mean OD minus OD at 0 ng/mL; remark: listed apart in the source
[18] = target: recombinant fragment of human VE-cadherin extracellular region, CAD 1-4 fragment (Asp48-Glu478, preceded by Met), SEQ ID NO: 4 (human) (UniProt P33151); experiment: sandwich ELISA, BV9 capture, rabbit polyclonal detection; CAD1-4 at 10 ng/mL; first replicate
[19] = target: circulating (soluble) human VE-cadherin, 90 kDa form, in human serum or plasma (human) (UniProt P33151); experiment: western blot of healthy human serum diluted 1/500, BV9 tested from 0.02 to 1 µg/mL

anti-VEcadherin mouse mAb, clone BV9 (Abcam, product datasheet ab7047) (antibody)
Corr. OD [1]: 0.512 OD
OD [2]: 0.932 OD
OD [3]: 1.26 OD
OD1 [4]: 1.76 OD
OD2 [4]: 1.76 OD
mean OD [4]: 1.76 OD
OD [5]: 1.34 OD
mean OD [6]: 1.4 OD
OD [7]: 0.975 OD
OD1 [8]: 0.988 OD
OD2 [8]: 0.985 OD
mean OD [8]: 0.987 OD
OD1 [9]: 1.31 OD
OD2 [9]: 1.21 OD
mean OD [9]: 1.26 OD
Corr. OD [10]: 0.282 OD
OD [11]: 1.07 OD
OD1 [12]: 0.867 OD
OD2 [12]: 0.829 OD
mean OD [12]: 0.848 OD
Corr. OD [13]: 0.116 OD
Corr. OD [14]: 1.06 OD
OD [15]: 2 OD
mean OD [16]: 0.937 OD
Corr. OD [17]: 1.06 OD
OD [18]: 1.9 OD
lowest mAb concentration giving detection [19]: 0.02 µg/mL
mAb concentration at signal plateau [19]: 0.1 to 1 µg/mL
